Experimental data as given in patent publication CN109021108A (UNIV NANJING MEDICAL, dated 2018).

How the values were obtained:
[1] = target: T1, GPC3-his蛋白 (UniProt P51654 25-559); test: ELISA titration, GPC3-his coated at 5 μg/ml, 32A9 IgG from 20 μg/ml in 1:2 dilutions, fitted affinity curve
T1 construct: also called GPC3蛋白; not shown: his tag

[2] = target: T2, GPC3 on A431-GPC3细胞 (A431 cells stably transfected with GPC3 cDNA) (UniProt P51654 25-554); test: flow cytometry titration on A431-GPC3 cells, 32A9 IgG from 60 μg/ml in 1:2 dilutions, fitted affinity curve
T2 construct: whole, on cells; also called GPC3阳性细胞; GPC3阳性靶细胞
T2 sequence (P51654 25-554 limits assumed, form in doubt): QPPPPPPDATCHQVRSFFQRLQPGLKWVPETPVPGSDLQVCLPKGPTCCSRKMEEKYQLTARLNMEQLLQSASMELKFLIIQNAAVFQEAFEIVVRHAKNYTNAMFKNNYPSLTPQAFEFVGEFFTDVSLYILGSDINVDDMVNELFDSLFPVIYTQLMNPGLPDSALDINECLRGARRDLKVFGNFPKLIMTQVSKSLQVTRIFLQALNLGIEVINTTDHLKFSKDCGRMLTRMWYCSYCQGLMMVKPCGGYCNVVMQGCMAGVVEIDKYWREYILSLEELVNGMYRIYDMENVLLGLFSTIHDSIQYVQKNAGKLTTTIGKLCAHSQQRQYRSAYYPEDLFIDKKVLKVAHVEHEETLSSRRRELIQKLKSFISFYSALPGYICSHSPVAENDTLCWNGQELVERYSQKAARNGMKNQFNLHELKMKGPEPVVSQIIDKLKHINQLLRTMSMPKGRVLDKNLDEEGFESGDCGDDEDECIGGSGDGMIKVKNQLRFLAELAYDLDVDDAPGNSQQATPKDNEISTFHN

T1 sequence (P51654 25-559 limits assumed): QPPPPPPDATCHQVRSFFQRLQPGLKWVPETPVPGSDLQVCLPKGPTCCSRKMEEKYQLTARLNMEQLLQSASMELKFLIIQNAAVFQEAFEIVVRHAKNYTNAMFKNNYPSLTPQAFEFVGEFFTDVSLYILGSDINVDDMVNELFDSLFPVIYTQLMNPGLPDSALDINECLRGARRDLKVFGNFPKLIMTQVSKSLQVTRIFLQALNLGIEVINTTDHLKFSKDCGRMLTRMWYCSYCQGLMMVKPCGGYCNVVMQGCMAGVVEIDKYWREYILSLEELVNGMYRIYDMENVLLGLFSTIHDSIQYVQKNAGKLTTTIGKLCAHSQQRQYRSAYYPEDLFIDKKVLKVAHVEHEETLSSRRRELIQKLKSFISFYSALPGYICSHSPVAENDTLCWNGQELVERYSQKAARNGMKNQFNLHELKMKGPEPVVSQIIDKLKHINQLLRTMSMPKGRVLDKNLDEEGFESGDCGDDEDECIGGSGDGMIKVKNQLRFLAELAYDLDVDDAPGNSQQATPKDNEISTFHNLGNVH

Kd [1]: 1.93 nM
Kd [2]: 6.25 nM
B1: 32A9IgG重组蛋白 (抗体32A9, anti-GPC3 fully human antibody, IgG form) (antibody, V domains shown)
VH: EVQLLESGGGLVQPGGSLRLSCAASGFTFSSYAMSWVRQAPGKGLEWVSGIAYNGASTAYADSVKGRFTISRDNSKNTLYLQMNSLRAEDTAVYYCAKSAGSFDYWGQGTLVTVSS
VL: DIQMTQSPSSLSASVGDRVTITCRASQSISSYLNWYQQKPGKAPKLLIYSASSLQSGVPSRFSGSGSGTDFTLTISSLQPEDFATYYCQQDYAYPYTFGQGTKVEIK
notes: also called 32A9IgG蛋白
